Experimental findings from publication PMC11782696, “Claudin-11 regulates immunological barrier formation and spermatogonial proliferation through stem cell factor” (Communications Biology, 2025) are described below.

The assay has as its target T1, MBP fusion protein of the PDZ1 domain (aa 19-113) of mouse ZO1 (mouse, UniProt P39447 19-113).
T1 construct: zonula occludens 1 (ZO1), mouse, PDZ1 domain, aa 19-113 of the 1,745-amino-acid protein; Expression vector provided by Masahiko Itoh; also called MBP-zPDZ1; PDZ1 of ZO1; source: E. coli DH5α, purified (amylose resin, eluted with 10 mM maltose)
T1 sequence (looked up): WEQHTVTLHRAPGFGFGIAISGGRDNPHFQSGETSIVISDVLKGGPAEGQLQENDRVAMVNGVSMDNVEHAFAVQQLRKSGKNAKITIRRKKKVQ
Briefly: pull-down; GST-fused proteins on Glutathione Sepharose 4B beads incubated with eluted MBP-fused proteins at 4 °C overnight in buffer A (50 mM Tris-HCl pH 8.0, 50 mM NaCl, 1 mM EDTA, 1 mM DTT); washed three times; SDS-PAGE and Coomassie Brilliant Blue staining. The note with it: both partners purified.

B1: GST fusion protein of the C-terminal 29 amino acids of mouse CLDN11 (aa 179-207) (domain or fragment, UniProt Q60771 179-207, looked up)
chain: SGDAQSFGENRFYYSSGSSSPTHAKSAHV
notes: claudin-11 (CLDN11), mouse, C-terminal 29 amino acids, aa 179-207 of the 207-residue protein; also called GST-CL11; claudin-11 C-terminus
On to B1, for which the binding result was “binds”.
